In patent US20160083466A1 (Regeneron, published 2016):

T1: mouse IL-25 expressed with a C-terminal myc-myc-hexahistidine tag (mouse)
T1 construct: also called Mouse IL-25-MMH; mIL-25-MMH
T1 chain: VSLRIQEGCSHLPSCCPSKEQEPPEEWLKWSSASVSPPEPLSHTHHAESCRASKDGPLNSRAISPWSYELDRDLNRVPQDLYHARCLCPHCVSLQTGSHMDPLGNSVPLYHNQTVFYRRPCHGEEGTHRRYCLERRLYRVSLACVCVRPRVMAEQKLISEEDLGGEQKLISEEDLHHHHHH

T2: monkey IL-25 expressed with a C-terminal myc-myc-hexahistidine tag (M. fascicularis (cynomolgus monkey))
T2 chain: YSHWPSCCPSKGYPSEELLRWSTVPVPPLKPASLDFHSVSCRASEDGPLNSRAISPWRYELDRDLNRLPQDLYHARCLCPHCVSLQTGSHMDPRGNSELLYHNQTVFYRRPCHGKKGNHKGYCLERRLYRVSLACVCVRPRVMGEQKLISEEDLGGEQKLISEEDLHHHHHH

T3: human IL-25 expressed with a C-terminal myc-myc-hexahistidine tag (human)
T3 chain: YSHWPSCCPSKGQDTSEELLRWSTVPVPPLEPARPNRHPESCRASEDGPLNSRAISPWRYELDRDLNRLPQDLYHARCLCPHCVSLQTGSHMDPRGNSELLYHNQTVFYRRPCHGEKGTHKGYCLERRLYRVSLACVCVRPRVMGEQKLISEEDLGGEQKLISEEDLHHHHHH

T4: rat IL-25 expressed with a C-terminal myc-myc-hexahistidine tag (rat)
T4 construct: also called Rat IL-25-MMH
T4 chain: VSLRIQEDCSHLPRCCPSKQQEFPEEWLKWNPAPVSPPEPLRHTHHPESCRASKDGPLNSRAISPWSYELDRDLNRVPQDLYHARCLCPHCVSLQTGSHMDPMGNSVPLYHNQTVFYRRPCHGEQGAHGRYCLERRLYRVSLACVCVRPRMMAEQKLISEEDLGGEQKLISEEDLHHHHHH

T5: rat IL-25 expressed with a C-terminal myc-myc-hexahistidine tag (rat)
T5 construct: also called rat IL-25-MMH
T5 chain: T4 chain

T6: mouse IL-25 expressed with a C-terminal myc-myc-hexahistidine tag (mouse)
T6 construct: also called mouse IL-25-MMH; mIL-25-MMH
T6 chain: T1 chain

T7: human IL-25 expressed with a C-terminal myc-myc-hexahistidine tag (human)
T7 construct: also called human IL-25-MMH; hIL-25-MMH
T7 chain: T3 chain

B1: H4H10906P (antibody, human IgG4, V domains shown)
VH: QVQLQESGPGLVKPSETLSLTCTVSGGSISSYYWSWIRQPPGKGLEWIGFIYYSGSTNYNPSLKSRVTISVDTSKNQFSLKLSSVTAADTAVYYCARHDSDYELYGMDVWGQGTTVTVSS
VL: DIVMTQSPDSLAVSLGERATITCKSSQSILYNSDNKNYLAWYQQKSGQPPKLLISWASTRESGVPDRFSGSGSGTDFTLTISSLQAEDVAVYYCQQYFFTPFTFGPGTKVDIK
notes: H4H prefix = human IgG4 Fc
B2: H1M11009N (antibody, mouse IgG1, V domains shown)
VH: EVQLVESGGGLVEPGGSLRLSCVASGFTFSNAWMNWVRQAPGKGLEWVGHIERKTDGGTTDFAAPVKGRFTISRDDSKNTLYLQMNSLKTEDTAVYYCTTVGPYSVPFDYWGQGTLVTVSS
VL: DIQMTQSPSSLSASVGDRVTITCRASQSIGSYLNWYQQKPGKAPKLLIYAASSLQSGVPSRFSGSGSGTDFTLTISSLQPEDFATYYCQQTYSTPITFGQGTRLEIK
notes: also called 12
B3: H4H10903P (antibody, human IgG4, V domains shown)
VH: QVQLQESGPGLVKPSETLSLTCTVSGGSINSYSWTWIRQPPGKGLEWIGNIYNSENTNYNPSLKSRVTISVDTSKSQVSLKLNSVTAADTAVYYCARTYNWNYEIGAMGVWGQGTTVTVSS
VL: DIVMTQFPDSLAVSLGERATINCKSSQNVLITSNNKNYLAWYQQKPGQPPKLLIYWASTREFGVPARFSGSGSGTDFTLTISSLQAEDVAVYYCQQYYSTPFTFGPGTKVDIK
notes: H4H prefix = human IgG4 Fc
B4: H4H10907P (antibody, human IgG4, V domains shown)
VH: EVQLVESGGGLVQPGGSLRLSCAASGFTFSNYDIHWVRQVPGKGLEWISTIGSAGDTFYPGSVKGRFTISRENAKNSLYLQMNSLRAGDSAVYYCARGDNWNYVSWFFDLWGRGTLVTVSS
VL: DIQLTQSPSFLSTSVGDRVTITCWASQDISSFLAWYQQKPGKAPKLLIYAASVLQSGVPSRFSGSGSGTEFTLTISSLQPEDFATYYCQQVNSYPITFGQGTRLEIK
notes: H4H prefix = human IgG4 Fc
B5: H2M11008N (antibody, V domains shown)
VH: QVQLQESGPGLVKPSETLSLTCTVSGGSISSHYWSWIRQPPGKGLEWIGFIYYSGSTNFNPSLKSRVTISIDTSKNQFSLKLSSVTAADTAVYYCARHDYNDYELNYFDLWGRGTLASVSS
VL: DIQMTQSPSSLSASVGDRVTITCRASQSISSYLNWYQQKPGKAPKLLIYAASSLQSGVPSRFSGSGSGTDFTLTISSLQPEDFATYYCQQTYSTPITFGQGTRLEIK
notes: also called H2aM11008N
B6: H4H10901P (antibody, human IgG4, V domains shown)
VH: QLQLQESGPGLVRPSETLSLTCSVSSGSIRSSNYYWGWIRQPPGKGLEWIGNIYYSGNTFYNPSLKGRVTISVDTSKNQFSLKLSSVTATDTAVYYCARQGYSDYELNWFDPWGQGTLVTVSS
VL: DIVMTQSPDSLVLSLGERATFNCKSSQSVLDSSNNKNYLAWYQQKPGQPPKLLIYWASTRESGVPDRFSGSGSGTDFSLTISSLQAEDVALYYCQQFYNSPWTFGQGTKVEIK
notes: H4H prefix = human IgG4 Fc

Key:
[1] = target: T1, mouse IL-25 expressed with a C-terminal …; experiment: SPR Biacore, antibody captured, 25C;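 for 100 nM Rat IL-25-MMH Bound (RU): purified anti-IL-25 antibodies were tested by real-time surface plasmon resonance on a Biacore 4000, with rate constants obtained from sensorgram fits to a 1:1 binding model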
Description: (§1) Equilibrium dissociation constants (KD values) for IL-25 binding to purified anti-IL-25 antibodies were determined using a real-time surface plasmon resonance biosensor assay on a Biacore 4000 instrument (GE Healthcare). […] All the IL-25 reagents were expressed with a C-terminal myc-myc-hexahistidine tag (referred to herein as “IL-25-MMH”). […] Kinetic association (kₐ) and dissociation (kd) rate constants were determined by fitting the real-time sensorgrams to a 1:1 binding model using Scrubber 2.0c curve fitting software.

[2] = target: T2, monkey IL-25 expressed with a …; experiment: cell-based or functional assay
[3] = target: T3, human IL-25 expressed with a C-terminal …; experiment: cell-based or functional assay
[4] = target: T1, mouse IL-25 expressed with a C-terminal …; experiment: SPR Biacore, antibody captured, 37C;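 for 100 nM Monkey IL-25-MMH Bound (RU): biacore 4000 surface plasmon resonance biosensor measuring binding of IL-25-MMH to purified anti-IL-25 antibodies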;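 for 100 nM Mouse IL-25-MMH Bound (RU): Real-time sensorgrams of IL-25-MMH binding to purified anti-IL-25 antibodies, rate constants obtained by fitting a 1:1 binding model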
Description: as §1

[5] = target: T4, rat IL-25 expressed with a C-terminal …; experiment: SPR Biacore, antibody captured, 25C;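 for 100 nM Rat IL-25-MMH Bound (RU): purified anti-IL-25 antibodies were tested by real-time surface plasmon resonance on a Biacore 4000, with rate constants obtained from sensorgram fits to a 1:1 binding model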
[6] = target: T3, human IL-25 expressed with a C-terminal …; experiment: competition ELISA, 2 nM hIL-25-MMH binding to coated hIL-17RB-hFc
Description: (§2) Data analysis was performed using a sigmoidal dose-response model within Prism™ software (GraphPad). […] The absorbance values of the wells containing the highest concentration for each antibody were used to determine the percent maximum blockade.

[7] = target: T2, monkey IL-25 expressed with a …; experiment: SPR Biacore, antibody captured, 37C;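 for 100 nM Monkey IL-25-MMH Bound (RU): biacore 4000 surface plasmon resonance biosensor measuring binding of IL-25-MMH to purified anti-IL-25 antibodies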;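 for 100 nM Mouse IL-25-MMH Bound (RU): Real-time sensorgrams of IL-25-MMH binding to purified anti-IL-25 antibodies, rate constants obtained by fitting a 1:1 binding model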
Description: as §1

[8] = target: T4, rat IL-25 expressed with a C-terminal …; experiment: SPR Biacore, antibody captured, 37C;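 for 100 nM Monkey IL-25-MMH Bound (RU): biacore 4000 surface plasmon resonance biosensor measuring binding of IL-25-MMH to purified anti-IL-25 antibodies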;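 for 100 nM Mouse IL-25-MMH Bound (RU): Real-time sensorgrams of IL-25-MMH binding to purified anti-IL-25 antibodies, rate constants obtained by fitting a 1:1 binding model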
[9] = target: T3, human IL-25 expressed with a C-terminal …; experiment: BLI Octet, hIL-25-MMH captured on anti-Penta-His sensor, 25C
Description: Binding competition between anti-IL-25 monoclonal antibodies was determined using a real time, label-free bio-layer interferometry assay on an Octet QK384 biosensor (Pall ForteBio Corp.).
The biosensors were washed in HBST kinetics buffer in between every step of the experiment. The real-time binding response was monitored during the course of the experiment and the binding response at the end of every step was recorded.

[10] = target: T3, human IL-25 expressed with a C-terminal …; experiment: competition ELISA, 2 nM hIL-25-MMH binding to coated hIL-17RB-hFc; (*) below theoretical bottom of the assay
Description: as §2

[11] = target: T5, rat IL-25 expressed with a C-terminal …; experiment: SPR Biacore, captured mAb, 25°C and 37°C
Description: as §1

[12] = target: T6, mouse IL-25 expressed with a C-terminal …; experiment: SPR Biacore, captured mAb, 25°C and 37°C
Description: as §1

[13] = target: T7, human IL-25 expressed with a C-terminal …; experiment: SPR Biacore, captured mAb, 25°C;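 note: biacore 4000 SPR with IL-25-MMH as analyte over purified anti-IL-25 antibodies, association and dissociation rates derived from fitting sensorgrams to a 1:1 binding model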
Description: as §1

[14] = target: T7, human IL-25 expressed with a C-terminal …; experiment: SPR Biacore, captured mAb, 37°C
Description: as §1

Row | Binder | 100 nM Mouse IL-25-MMH Bound (RU) [1] [RU] | binding result [1] | IC50, luciferase reporter cells, 12 pM MfIL-25-MMH [2] [M] | 100 nM Mouse IL-25-MMH Bound (RU) [4] [RU] | 100 nM Rat IL-25-MMH Bound (RU) [5] [RU] | binding result [5] | % Maximum blocking of 200 nM antibody [6] [%] | 100 nM Monkey IL-25-MMH Bound (RU) [7] [RU] | Kd [7] [nM] | koff [7] [s⁻¹] | kon [7] [M⁻¹ s⁻¹] | t½ [7] [min] | 100 nM Rat IL-25-MMH Bound (RU) [8] [RU] | 50 ug/mL mAb-1 Binding (nm) [9] [nm] | IC50 [10] [nM] | binding result [11] | binding result [12] | 100 nM Human IL-25-MMH Bound (RU) [13] [RU] | Kd [13] [nM] | IC50, luciferase reporter cells, 5 pM hIL-25-MMH [3] [M] | also measured
1 | B1 | 1 | no binding (tested: 100 nM) | 4.7e-11 | 2 | 2 | no binding (tested: 100 nM) | 89 | 73 | 0.0431 | 0.00013 | 3.01e+06 | 89 | 3 | 0.88 | 0.14 | – | – | – | – | – | IC50, luciferase reporter cells, 5 pM hIL-25-MMH (second assay day) [3]: 2.7e-11 M
2 | B2 | – | – | – | – | – | – | – | – | – | – | – | – | – | – | – | no binding (tested: 100 nM) | no binding (tested: 100 nM) | 30 | 12.5 | – | koff [13]: 0.00304 s⁻¹; kon [13]: 242000 M⁻¹ s⁻¹; t½ [13]: 4 min; 100 nM Human IL-25-MMH Bound (RU) [14]: 30 RU; Kd [14]: 21.1 nM; koff [14]: 0.00829 s⁻¹; kon [14]: 393000 M⁻¹ s⁻¹; t½ [14]: 1.4 min
3 | B3 | 0 | no binding (tested: 100 nM) | 6e-11 | 1 | 1 | no binding (tested: 100 nM) | 91 | 66 | 0.0374 | 6.59e-05 | 1.76e+06 | 175 | 2 | 1.03 | 0.24 | – | – | – | – | 1.4e-10 | –
4 | B4 | 10 | – | 1.4e-10 | 8 | 10 | – | 87 | 50 | 0.0671 | 0.000101 | 1.51e+06 | 114 | 8 | 1.74 | 0.55 | – | – | – | – | 2.2e-10 | Kd [1]: 58.7 nM; koff [1]: 0.0115 s⁻¹; kon [1]: 196000 M⁻¹ s⁻¹; t½ [1]: 1 min; Kd [4]: 137 nM; koff [4]: 0.0376 s⁻¹; kon [4]: 275000 M⁻¹ s⁻¹; t½ [4]: 0.3 min; Kd [5]: 66.9 nM; koff [5]: 0.0147 s⁻¹; kon [5]: 220000 M⁻¹ s⁻¹; t½ [5]: 0.8 min; Kd [8]: 85.4 nM; koff [8]: 0.0204 s⁻¹; kon [8]: 238000 M⁻¹ s⁻¹; t½ [8]: 0.6 min
5 | B5 | – | – | – | – | – | – | – | – | – | – | – | – | – | – | – | no binding (tested: 100 nM) | no binding (tested: 100 nM) | 48 | 0.435 | – | koff [13]: 0.00021 s⁻¹; kon [13]: 482000 M⁻¹ s⁻¹; t½ [13]: 55 min; 100 nM Human IL-25-MMH Bound (RU) [14]: 60 RU; Kd [14]: 1.08 nM; koff [14]: 0.000793 s⁻¹; kon [14]: 734000 M⁻¹ s⁻¹; t½ [14]: 15 min
6 | B6 | 1 | no binding (tested: 100 nM) | 3.8e-11 | 2 | 0 | no binding (tested: 100 nM) | 91 | 64 | 0.0464 | 0.000165 | 3.55e+06 | 70 | 1 | 0.67 | 0.23 | – | – | – | – | 5.6e-11 | –
